{"source": "patent US20230183713A1", "about": "“SITE-SPECIFIC RECOMBINASES FOR EFFICIENT AND SPECIFIC GENOME EDITING” (TECHNISCHE UNIVERSITÄt DRESDEN, published 2023)", "assay_in_all_cases": "cell_activity; E. coli plasmid assay, median", "details_in_all_cases": "chain copies: 2", "key": {"Cre R292G + Cre Q311R": {"target": "Cre R292G + Cre Q311R (UniProt P06956;P06956 SEQ:1-343,SEQ:1-343, R292G (first monomer))", "method": "(§1) To generate further obligate recombinases, additional single mutations in the catalytic region (i.e. at amino acid positions 129-136, 163-181, 199-211, 289-301, 310-316 and 321-324 of SEQ ID NO: 1, cf. FIG. 17A, dark regions) of the recombination synapse of the Cre recombinase (Guo et al. 1997, Lee et al. 2002, Gibb et al. 2010, Meinke et al. 2016) were introduced as outlined in Table 6 below. […] Recombination activity of the recombinases on loxP was measured by a plasmid-based assay as previously described (6, 9, 10). in the experiments, the recombined pEVO is smaller in size compared to the non-recombined pEVO. […] These two different fragments can either be distinguished by gel electrophoresis or by sequencing. The recombination efficiencies (indicated as dimer and monomer acitivty, respectively) were calculated based on the ratio of recombined and non-recombined substrate using the following formula: Recombination activity (%)=100×(recombined substrate/(recombined+non-recombined substrates))."}, "Cre K201F + Cre Y324C": {"target": "Cre K201F + Cre Y324C (UniProt P06956;P06956 SEQ:1-343,SEQ:1-343, K201F (first monomer); Y324C (second monomer))", "method": "as §1"}, "Cre Q311R + Cre Y324F": {"target": "Cre Q311R + Cre Y324F (UniProt P06956;P06956 SEQ:1-343,SEQ:1-343, Y324F (second monomer))", "method": "as §1"}, "Cre W315K + Cre Y324K": {"target": "Cre W315K + Cre Y324K (UniProt P06956;P06956 SEQ:1-343,SEQ:1-343, W315K (first monomer); Y324K (second monomer))", "method": "as §1"}, "Cre H289W + Cre W315C": {"target": "Cre H289W + Cre W315C (UniProt P06956;P06956 SEQ:1-343,SEQ:1-343, H289W (first monomer); W315C (second monomer))", "method": "as §1"}, "Cre K201M + Cre K201R": {"target": "Cre K201M + Cre K201R (UniProt P06956;P06956 SEQ:1-343,SEQ:1-343, K201M (first monomer))", "method": "as §1"}, "Cre E129R + Cre K201R": {"target": "Cre E129R + Cre K201R (UniProt P06956;P06956 SEQ:1-343,SEQ:1-343, E129R (first monomer))", "method": "as §1"}, "Cre W315Q + Cre Y324V": {"target": "Cre W315Q + Cre Y324V (UniProt P06956;P06956 SEQ:1-343,SEQ:1-343, W315Q (first monomer); Y324V (second monomer))", "method": "as §1"}, "Cre E129R + Cre Q311R": {"target": "Cre E129R + Cre Q311R (UniProt P06956;P06956 SEQ:1-343,SEQ:1-343, E129R (first monomer))", "method": "as §1"}, "Cre Q311R + Cre W315M": {"target": "Cre Q311R + Cre W315M (UniProt P06956;P06956 SEQ:1-343,SEQ:1-343, W315M (second monomer))", "method": "as §1"}, "Cre Q311R + Cre Y324I": {"target": "Cre Q311R + Cre Y324I (UniProt P06956;P06956 SEQ:1-343,SEQ:1-343, Y324I (second monomer))", "method": "as §1"}, "Cre H289D + Cre Q311R": {"target": "Cre H289D + Cre Q311R (UniProt P06956;P06956 SEQ:1-343,SEQ:1-343, H289D (first monomer))", "method": "as §1"}, "Cre R173S + Cre Q311R": {"target": "Cre R173S + Cre Q311R (UniProt P06956;P06956 SEQ:1-343,SEQ:1-343, R173S (first monomer))", "method": "as §1"}, "Cre R292F + Cre Q311R": {"target": "Cre R292F + Cre Q311R (UniProt P06956;P06956 SEQ:1-343,SEQ:1-343, R292F (first monomer))", "method": "as §1"}, "Cre E176I + Cre Q311R": {"target": "Cre E176I + Cre Q311R (UniProt P06956;P06956 SEQ:1-343,SEQ:1-343, E176I (first monomer))", "method": "as §1"}, "Cre R292Y + Cre Y324M": {"target": "Cre R292Y + Cre Y324M (UniProt P06956;P06956 SEQ:1-343,SEQ:1-343, R292Y (first monomer); Y324M (second monomer))", "method": "as §1"}, "Cre Q311R + Cre W315S": {"target": "Cre Q311R + Cre W315S (UniProt P06956;P06956 SEQ:1-343,SEQ:1-343, W315S (second monomer))", "method": "as §1"}, "Cre Q133H + Cre Q311R": {"target": "Cre Q133H + Cre Q311R (UniProt P06956;P06956 SEQ:1-343,SEQ:1-343, Q133H (first monomer))", "method": "as §1"}, "Cre R173A + Cre Q311R": {"target": "Cre R173A + Cre Q311R (UniProt P06956;P06956 SEQ:1-343,SEQ:1-343, R173A (first monomer))", "method": "as §1"}, "Cre E176W + Cre Q311R": {"target": "Cre E176W + Cre Q311R (UniProt P06956;P06956 SEQ:1-343,SEQ:1-343, E176W (first monomer))", "method": "as §1"}, "Cre R173F + Cre E176V": {"target": "Cre R173F + Cre E176V (UniProt P06956;P06956 SEQ:1-343,SEQ:1-343, R173F (first monomer); E176V (second monomer))", "method": "as §1"}, "Cre K201A + Cre Q311R": {"target": "Cre K201A + Cre Q311R (UniProt P06956;P06956 SEQ:1-343,SEQ:1-343, K201A (first monomer))", "method": "as §1"}, "Cre R173G + Cre K201Y": {"target": "Cre R173G + Cre K201Y (UniProt P06956;P06956 SEQ:1-343,SEQ:1-343, R173G (first monomer); K201Y (second monomer))", "method": "as §1"}}}
{"binder": "loxP (dsDNA) DNA 1: ATAACTTCGTATAATGTATGCTATACGAAGTTAT DNA 2: ATAACTTCGTATAGCATACATTATACGAAGTTAT", "values": [{"measurement": "activity", "setting": "Cre R292G + Cre Q311R", "result": 97, "unit": "% recombined"}, {"measurement": "activity", "setting": "Cre K201F + Cre Y324C", "result": 98, "unit": "% recombined"}, {"measurement": "activity", "setting": "Cre Q311R + Cre Y324F", "result": 95, "unit": "% recombined"}, {"measurement": "activity", "setting": "Cre W315K + Cre Y324K", "result": 99, "unit": "% recombined"}, {"measurement": "activity", "setting": "Cre H289W + Cre W315C", "result": 87, "unit": "% recombined"}, {"measurement": "activity", "setting": "Cre K201M + Cre K201R", "result": 76, "unit": "% recombined"}, {"measurement": "activity", "setting": "Cre E129R + Cre K201R", "result": 26, "unit": "% recombined"}, {"measurement": "activity", "setting": "Cre W315Q + Cre Y324V", "result": 97, "unit": "% recombined"}, {"measurement": "activity", "setting": "Cre E129R + Cre Q311R", "result": 93, "unit": "% recombined"}, {"measurement": "activity", "setting": "Cre Q311R + Cre W315M", "result": 95, "unit": "% recombined"}, {"measurement": "activity", "setting": "Cre Q311R + Cre Y324I", "result": 96, "unit": "% recombined"}, {"measurement": "activity", "setting": "Cre H289D + Cre Q311R", "result": 97, "unit": "% recombined"}, {"measurement": "activity", "setting": "Cre R173S + Cre Q311R", "result": 97, "unit": "% recombined"}, {"measurement": "activity", "setting": "Cre R292F + Cre Q311R", "result": 42, "unit": "% recombined"}, {"measurement": "activity", "setting": "Cre E176I + Cre Q311R", "result": 36, "unit": "% recombined"}, {"measurement": "activity", "setting": "Cre R292Y + Cre Y324M", "result": 90, "unit": "% recombined"}, {"measurement": "activity", "setting": "Cre Q311R + Cre W315S", "result": 37, "unit": "% recombined"}, {"measurement": "activity", "setting": "Cre Q133H + Cre Q311R", "result": 96, "unit": "% recombined"}, {"measurement": "activity", "setting": "Cre R173A + Cre Q311R", "result": 93, "unit": "% recombined"}, {"measurement": "activity", "setting": "Cre E176W + Cre Q311R", "result": 90, "unit": "% recombined"}, {"measurement": "activity", "setting": "Cre R173F + Cre E176V", "result": 82, "unit": "% recombined"}, {"measurement": "activity", "setting": "Cre K201A + Cre Q311R", "result": 95, "unit": "% recombined"}, {"measurement": "activity", "setting": "Cre R173G + Cre K201Y", "result": 95, "unit": "% recombined"}]}
